Assay results published in article PMC5638340 (PLoS ONE, 2017).

Target: T1, Extracellular domain (ECD) of the human neuronal α9 nAChR (human, UniProt Q9UGM1 23-238)
T1 construct: also called ECD of human α9 nAChR; water-soluble extracellular domain of human α9 nAChR; source: expressed, enzymatically deglycosylated and purified as described [26]
Assay: radioligand binding
Conditions: both partners purified

T1 sequence (Q9UGM1 23-238): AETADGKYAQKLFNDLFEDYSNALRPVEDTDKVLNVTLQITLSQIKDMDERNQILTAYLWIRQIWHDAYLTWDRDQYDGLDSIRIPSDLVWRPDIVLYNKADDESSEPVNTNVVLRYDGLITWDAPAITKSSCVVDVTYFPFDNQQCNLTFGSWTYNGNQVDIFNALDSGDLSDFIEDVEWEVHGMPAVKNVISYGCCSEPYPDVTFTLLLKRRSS

B1: PLA2 from porcine pancreas (enzyme)
chain: not shown
notes: also called PP PLA2; porcine pancreatic PLA2
IC50: 5.5 µM
